Data taken from PMC6330322.

What was measured:
[1] = biological target: NrnC from Agrobacterium tumefaciens (Agrobacterium tumefaciens str. C58); assay: SEC; Superdex 200, 25 mM Tris-HCl pH 8.0, 100 mM NaCl; calibrated with Ec_RND, Tle1, conalbumin and aldolase; self-association, octamer
[2] = biological target: NrnC from Agrobacterium tumefaciens (Agrobacterium tumefaciens str. C58); assay: crystal structure; apo and Mn2+-soaked crystals, space group I422, two protomers in the asymmetric unit; octamer from crystal packing, interfaces analysed with PISA
[3] = biological target: NrnC from Agrobacterium tumefaciens (Agrobacterium tumefaciens str. C58); assay: AUC; sedimentation velocity, 1 mg/mL At_NrnC in 25 mM Tris-HCl pH 8.0, 100 mM NaCl, without or with 5 mM MnCl2, 60,000 rpm, 20°C, Sedfit; self-association, octamer

stoichiometry N [1]: 8 | stoichiometry N [2]: 8 | stoichiometry N [3]: 8
Substance: NrnC from Agrobacterium tumefaciens (enzyme)
